Measurements as given in PMC9482650, “Quantitative fragmentomics allow affinity mapping of interactomes” (Nature Communications, 2022).

Legend:
Assay in all cases: holdup assay
Parameters in all cases: key: below the threshold = too weak to quantify, mostly under pKd 3.1 to 4
Inadl_3, Q8NI35 = molecular target: Inadl_3, Q8NI35
DFNB31_2, Q9P202 = molecular target: T1, DFNB31_2, Q9P202
T1 sequence (Q9P202 274-371, limits assumed, looked up): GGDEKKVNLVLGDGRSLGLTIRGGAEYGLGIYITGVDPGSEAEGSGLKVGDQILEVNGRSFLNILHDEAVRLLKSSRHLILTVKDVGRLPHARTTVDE

DFNB31_3, Q9P202 = molecular target: T2, DFNB31_3, Q9P202
T2 sequence (Q9P202 811-907, limits assumed, looked up): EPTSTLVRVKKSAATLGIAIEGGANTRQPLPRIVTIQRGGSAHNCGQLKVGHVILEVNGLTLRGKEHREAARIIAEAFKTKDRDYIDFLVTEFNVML

MPDZ_5, O75970 = molecular target: T3, MPDZ_5, O75970
T3 sequence (O75970 695-796, limits assumed, looked up): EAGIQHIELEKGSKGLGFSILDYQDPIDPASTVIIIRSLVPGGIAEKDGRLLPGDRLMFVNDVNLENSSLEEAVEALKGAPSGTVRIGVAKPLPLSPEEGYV

FRMPD3, Q5JV73 = molecular target: FRMPD3, Q5JV73
DLG3_2, Q92796 = molecular target: T4, DLG3_2, Q92796
T4 sequence (Q92796 221-321, limits assumed, looked up): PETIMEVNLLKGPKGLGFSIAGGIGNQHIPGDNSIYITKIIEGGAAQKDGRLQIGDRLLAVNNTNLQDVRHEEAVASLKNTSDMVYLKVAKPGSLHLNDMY

GRIP2_6, Q9C0E4 = molecular target: GRIP2_6, Q9C0E4
SNTA1, Q13424 = molecular target: T5, SNTA1, Q13424
T5 sequence (Q13424 82-180, limits assumed, looked up): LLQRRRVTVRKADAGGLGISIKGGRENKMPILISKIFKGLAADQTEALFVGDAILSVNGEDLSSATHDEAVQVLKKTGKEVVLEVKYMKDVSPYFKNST

MAGI2_2, Q86UL8 = molecular target: MAGI2_2, Q86UL8
MAGI3_2, Q5TCQ9 = molecular target: MAGI3_2, Q5TCQ9
Inadl_4, Q8NI35 = molecular target: Inadl_4, Q8NI35
MPDZ_12, O75970 = molecular target: T6, MPDZ_12, O75970
T6 sequence (O75970 1857-1958, limits assumed, looked up): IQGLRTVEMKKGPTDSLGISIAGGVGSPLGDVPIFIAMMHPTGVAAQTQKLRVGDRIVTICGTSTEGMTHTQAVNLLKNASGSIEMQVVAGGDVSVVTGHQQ

TJP1_2, Q07157 = molecular target: TJP1_2, Q07157
HTRA1, Q92743 = molecular target: HTRA1, Q92743
MPDZ_10, O75970 = molecular target: T7, MPDZ_10, O75970
T7 sequence (O75970 1624-1722, limits assumed, looked up): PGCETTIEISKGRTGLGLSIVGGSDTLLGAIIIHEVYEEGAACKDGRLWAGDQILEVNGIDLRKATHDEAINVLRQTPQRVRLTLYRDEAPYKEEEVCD

PDZRN3_1, Q9UPQ7 = molecular target: T8, PDZRN3_1, Q9UPQ7
T8 sequence (Q9UPQ7 244-349, limits assumed, looked up): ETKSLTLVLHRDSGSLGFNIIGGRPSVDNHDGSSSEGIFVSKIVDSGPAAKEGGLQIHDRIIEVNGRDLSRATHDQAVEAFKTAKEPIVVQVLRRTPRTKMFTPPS

ARHGAP21, Q5T5U3 = molecular target: T9, ARHGAP21, Q5T5U3
T9 sequence (Q5T5U3 45-169, limits assumed, looked up): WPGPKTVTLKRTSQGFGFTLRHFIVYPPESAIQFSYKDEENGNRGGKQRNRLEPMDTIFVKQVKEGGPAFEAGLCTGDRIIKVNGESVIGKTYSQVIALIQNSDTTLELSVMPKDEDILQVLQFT

GRIP1_4, Q9Y3R0 = molecular target: T10, GRIP1_4, Q9Y3R0
T10 sequence (Q9Y3R0 467-571, limits assumed, looked up): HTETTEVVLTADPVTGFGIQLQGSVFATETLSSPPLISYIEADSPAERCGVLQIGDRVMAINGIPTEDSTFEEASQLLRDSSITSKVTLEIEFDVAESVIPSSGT

PDLIM1, O00151 = molecular target: PDLIM1, O00151
PDZD2_2, O15018 = molecular target: T11, PDZD2_2, O15018
T11 sequence (O15018 329-429, limits assumed, looked up): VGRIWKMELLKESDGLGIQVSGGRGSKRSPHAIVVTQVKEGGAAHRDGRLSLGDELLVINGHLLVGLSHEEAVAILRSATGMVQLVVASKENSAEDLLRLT

TX1BP3, O14907 = molecular target: T12, TX1BP3, O14907
T12 sequence (O14907 10-122, limits assumed, looked up): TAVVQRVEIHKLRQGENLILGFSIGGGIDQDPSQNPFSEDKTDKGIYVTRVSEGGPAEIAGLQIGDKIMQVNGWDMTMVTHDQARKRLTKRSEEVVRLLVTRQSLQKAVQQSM

IL16_1, Q14005 = molecular target: IL16_1, Q14005
MPP7, Q5T2T1 = molecular target: T13, MPP7, Q5T2T1
T13 sequence (Q5T2T1 134-230, limits assumed, looked up): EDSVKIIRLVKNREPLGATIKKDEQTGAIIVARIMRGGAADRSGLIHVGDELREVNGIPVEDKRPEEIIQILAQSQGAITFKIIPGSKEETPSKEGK

LIMK2, P53671 = molecular target: LIMK2, P53671
[1] = plain residues with an end cap or a label only (N-terminal biotin on a linker: ado-ado)
[2] = plain residues with an end cap or a label only (N-terminal biotin on a linker: ahx)
[3] = plain residues with an end cap or a label only (N-terminal biotin on a linker: (peg)3)

PDLIM1, O00151, sequence (O00151 1-87): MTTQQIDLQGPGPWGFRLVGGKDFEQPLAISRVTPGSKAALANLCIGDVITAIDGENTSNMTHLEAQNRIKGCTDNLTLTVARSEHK
GRIP2_6, Q9C0E4, sequence (Q9C0E4 648-740): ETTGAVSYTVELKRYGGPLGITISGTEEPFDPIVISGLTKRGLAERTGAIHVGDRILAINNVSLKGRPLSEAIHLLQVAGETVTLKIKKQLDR
Inadl_4, Q8NI35, sequence (Q8NI35 547-651): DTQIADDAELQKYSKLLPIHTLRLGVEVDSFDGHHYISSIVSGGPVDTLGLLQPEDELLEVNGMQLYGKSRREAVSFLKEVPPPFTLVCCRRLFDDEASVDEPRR
TJP1_2, Q07157, sequence (Q07157 181-274): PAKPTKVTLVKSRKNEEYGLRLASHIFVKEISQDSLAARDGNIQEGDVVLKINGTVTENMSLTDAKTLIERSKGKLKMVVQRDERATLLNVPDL
FRMPD3, Q5JV73, sequence (Q5JV73 12-100): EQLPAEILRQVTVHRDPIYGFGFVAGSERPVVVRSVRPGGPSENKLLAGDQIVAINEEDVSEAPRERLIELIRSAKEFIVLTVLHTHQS
LIMK2, P53671, sequence (P53671 143-248): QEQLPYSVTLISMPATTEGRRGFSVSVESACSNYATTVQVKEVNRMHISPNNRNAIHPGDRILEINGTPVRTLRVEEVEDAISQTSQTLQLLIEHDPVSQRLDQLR
MAGI3_2, Q5TCQ9, sequence (Q5TCQ9 398-503): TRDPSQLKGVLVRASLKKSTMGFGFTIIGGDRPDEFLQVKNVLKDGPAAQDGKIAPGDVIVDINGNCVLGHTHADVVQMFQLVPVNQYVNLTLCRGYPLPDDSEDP
MAGI2_2, Q86UL8, sequence (Q86UL8 410-522): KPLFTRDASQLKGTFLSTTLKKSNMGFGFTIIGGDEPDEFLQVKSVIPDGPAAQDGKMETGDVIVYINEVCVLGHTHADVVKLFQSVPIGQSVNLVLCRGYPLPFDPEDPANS
Inadl_3, Q8NI35, sequence (Q8NI35 359-469): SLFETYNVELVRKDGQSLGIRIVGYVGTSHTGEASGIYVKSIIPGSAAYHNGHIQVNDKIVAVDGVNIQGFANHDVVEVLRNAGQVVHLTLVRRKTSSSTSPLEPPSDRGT
IL16_1, Q14005, sequence (Q14005 210-306): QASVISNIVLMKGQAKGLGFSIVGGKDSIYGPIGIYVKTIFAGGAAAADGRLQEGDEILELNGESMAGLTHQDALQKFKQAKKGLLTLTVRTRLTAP
HTRA1, Q92743, sequence (Q92743 360-477): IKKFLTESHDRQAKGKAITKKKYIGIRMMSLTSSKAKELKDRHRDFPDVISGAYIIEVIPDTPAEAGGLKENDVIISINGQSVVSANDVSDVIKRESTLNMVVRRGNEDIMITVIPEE

EIPAQSPTCV [FZD10, Q9ULW2]
pKd (Inadl_3, Q8NI35; [1]): 3.62
pKd (DFNB31_2, Q9P202; [1]): below the threshold
pKd (DFNB31_3, Q9P202; [1]): below the threshold
pKd (MPDZ_5, O75970; [1]): below the threshold
pKd (FRMPD3, Q5JV73; [1]): 3.49
pKd (DLG3_2, Q92796; [1]): 3.88
pKd (GRIP2_6, Q9C0E4; [1]): 3.74
pKd (SNTA1, Q13424; [1]): 3.83
pKd (MAGI2_2, Q86UL8; [1]): 4.17
pKd (MAGI3_2, Q5TCQ9; [1]): 4.12
pKd (Inadl_4, Q8NI35; [1]): 3.64
pKd (MPDZ_12, O75970; [1]): below the threshold
pKd (TJP1_2, Q07157; [1]): 3.78
pKd (HTRA1, Q92743; [1]): 4.57
pKd (MPDZ_10, O75970; [1]): 3.89
pKd (PDZRN3_1, Q9UPQ7; [1]): below the threshold
pKd (ARHGAP21, Q5T5U3; [1]): 4.12
pKd (GRIP1_4, Q9Y3R0; [1]): 3.64
pKd (PDLIM1, O00151; [1]): 3.68
pKd (PDZD2_2, O15018; [1]): 4.49
pKd (TX1BP3, O14907; [1]): below the threshold
pKd (IL16_1, Q14005; [1]): 3.79
pKd (MPP7, Q5T2T1; [1]): below the threshold
pKd (LIMK2, P53671; [1]): below the threshold

QDEKVKESYV [ABCA1, O95477]
pKd (Inadl_3, Q8NI35; [2]): 3.75
pKd (DFNB31_2, Q9P202; [2]): 4.79
pKd (DFNB31_3, Q9P202; [2]): below the threshold
pKd (MPDZ_5, O75970; [2]): 3.63
pKd (FRMPD3, Q5JV73; [2]): below the threshold
pKd (DLG3_2, Q92796; [2]): 4.92
pKd (GRIP2_6, Q9C0E4; [2]): below the threshold
pKd (SNTA1, Q13424; [2]): 5.9
pKd (MAGI2_2, Q86UL8; [2]): 4.52
pKd (MAGI3_2, Q5TCQ9; [2]): 5.14
pKd (Inadl_4, Q8NI35; [2]): below the threshold
pKd (MPDZ_12, O75970; [2]): below the threshold
pKd (TJP1_2, Q07157; [2]): below the threshold
pKd (HTRA1, Q92743; [2]): 4.28
pKd (MPDZ_10, O75970; [2]): 4.29
pKd (PDZRN3_1, Q9UPQ7; [2]): 4.31
pKd (ARHGAP21, Q5T5U3; [2]): below the threshold
pKd (GRIP1_4, Q9Y3R0; [2]): below the threshold
pKd (PDLIM1, O00151; [2]): below the threshold
pKd (PDZD2_2, O15018; [2]): 5.66
pKd (TX1BP3, O14907; [2]): 4.74
pKd (IL16_1, Q14005; [2]): 4.91
pKd (MPP7, Q5T2T1; [2]): below the threshold
pKd (LIMK2, P53671; [2]): below the threshold

RYEDTTLVEDTVL [WNV-NS5, Q9Q6P4]
pKd (Inadl_3, Q8NI35; [3]): 3.82
pKd (DFNB31_2, Q9P202; [3]): below the threshold
pKd (DFNB31_3, Q9P202; [3]): below the threshold
pKd (MPDZ_5, O75970; [3]): below the threshold
pKd (FRMPD3, Q5JV73; [3]): 3.88
pKd (DLG3_2, Q92796; [3]): 3.76
pKd (GRIP2_6, Q9C0E4; [3]): below the threshold
pKd (SNTA1, Q13424; [3]): 4.14
pKd (MAGI2_2, Q86UL8; [3]): below the threshold
pKd (MAGI3_2, Q5TCQ9; [3]): 3.5
pKd (Inadl_4, Q8NI35; [3]): below the threshold
pKd (MPDZ_12, O75970; [3]): below the threshold
pKd (TJP1_2, Q07157; [3]): 3.55
pKd (HTRA1, Q92743; [3]): 4.58
pKd (MPDZ_10, O75970; [3]): below the threshold
pKd (PDZRN3_1, Q9UPQ7; [3]): 3.61
pKd (ARHGAP21, Q5T5U3; [3]): 5.01
pKd (GRIP1_4, Q9Y3R0; [3]): below the threshold
pKd (PDLIM1, O00151; [3]): below the threshold
pKd (PDZD2_2, O15018; [3]): 4.42
pKd (TX1BP3, O14907; [3]): below the threshold
pKd (IL16_1, Q14005; [3]): below the threshold
pKd (MPP7, Q5T2T1; [3]): below the threshold
pKd (LIMK2, P53671; [3]): below the threshold
